Measurements reported in article PMC12118636.
Read-outs that look alike come from different tables or passages of the source.

Assays:
[1] = target: hNaV1.9 IQ domain peptide (human); assay: ITC
[2] = target: hNaV1.9 IQ domain peptide (human); assay: ITC; remark: listed apart in the source

Kd [1]: 37 µM
Kd [2]: 480 µM
Substance: Human calmodulin (from UniProt P0DP23 1-149) (natural protein)
